The target in assay [1] is T1, seleno-methionine labeled SRP72-PBD (L31M/L65M) (human, UniProt O76094 8-166, L31M | L65M, seleno-methionine labeled).
T1 sequence (looked up): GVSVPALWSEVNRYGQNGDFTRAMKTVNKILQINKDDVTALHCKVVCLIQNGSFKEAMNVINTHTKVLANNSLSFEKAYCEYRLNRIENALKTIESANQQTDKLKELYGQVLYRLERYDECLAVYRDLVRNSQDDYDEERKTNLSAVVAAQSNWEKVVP
Put plainly: crystal structure.

For assay [2], the target named is T2, human SRP72 protein-binding domain (SRP72-PBD, 8-166) (human, UniProt O76094 8-166).
T2 sequence (looked up): T1 sequence (looked up) with M24L, M58L
Briefly: ITC. (In ITC the heat of successive injections is recorded.)

Where a chain is given by its changes, count along the chain named.

Experimental findings from PMC5224484 (Nucleic Acids Research, 2016) are described below.

B1: untagged human SRP68 protein-binding domain (SRP68-PBD, 546-614) (domain or fragment, UniProt Q9UHB9 546-614, looked up)
chain: SQVKDNKPLVERFETFCLDPSLVTKQANLVHFPPGFQPIPCKPLFFDLALNHVAFPPLEDKLEQKTKSG
As for B1, the binding result in assay [1] is “binds”.

B2: His6-SRP68-PBD (human SRP68 546-614 from pETtrx1a) (domain or fragment, UniProt Q9UHB9 546-614, looked up)
chain: B1 chain
In general, Kd refers to the concentration at which binding is half-saturated. A lower Kd goes with a tighter complex. Turning to B2, in assay [2], the Kd worked out at 33 ± 11 nM and the dH was -15.7 ± 0.5 kcal/mol.
